Experimental data taken from article PMC12785156 (2025).

T1: GST-PUB11-ARM (Arabidopsis thaliana)
T1 chain: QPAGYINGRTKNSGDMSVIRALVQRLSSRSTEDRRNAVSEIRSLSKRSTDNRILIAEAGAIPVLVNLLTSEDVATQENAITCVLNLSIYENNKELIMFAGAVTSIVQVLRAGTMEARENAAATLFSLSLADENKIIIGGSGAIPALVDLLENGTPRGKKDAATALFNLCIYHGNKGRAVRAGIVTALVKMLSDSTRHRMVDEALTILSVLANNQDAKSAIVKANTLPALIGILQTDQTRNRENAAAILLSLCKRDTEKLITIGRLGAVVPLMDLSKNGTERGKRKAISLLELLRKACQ

B1: His-AtHPPD (Arabidopsis thaliana 4-hydroxyphenylpyruvate dioxygenase) (enzyme)
chain: MGHQNAAVSENQNHDDGAASSPGFKLVGFSKFVRKNPKSDKFKVKRFHHIEFWCGDATNVARRFSWGLGMRFSAKSDLSTGNMVHASYLLTSGDLRFLFTAPYSPSLSAGEIKPTTTASIPSFDHGSCRSFFSSHGLGVRAVAIEVEDAESAFSISVANGAIPSSPPIVLNEAVTIAEVKLYGDVVLRYVSYKAEDTEKSEFLPGFERVEDASSFPLDYGIRRLDHAVGNVPELGPALTYVAGFTGFHQFAEFTADDVGTAESGLNSAVLASNDEMVLLPINEPVHGTKRKSQIQTYLEHNEGAGLQHLALMSEDIFRTLREMRKRSSIGGFDFMPSPPPTYYQNLKKRVGDVLSDDQIKECEELGILVDRDDQGTLLQIFTKPLGDRPTIFIEIIQRVGCMMKDEEGKAYQSGGCGGFGKGNFSELFKSIEEYEKTLEAKQLVG
B2: AtHPPD-F428Y (protein)
chain: MGHQNAAVSENQNHDDGAASSPGFKLVGFSKFVRKNPKSDKFKVKRFHHIEFWCGDATNVARRFSWGLGMRFSAKSDLSTGNMVHASYLLTSGDLRFLFTAPYSPSLSAGEIKPTTTASIPSFDHGSCRSFFSSHGLGVRAVAIEVEDAESAFSISVANGAIPSSPPIVLNEAVTIAEVKLYGDVVLRYVSYKAEDTEKSEFLPGFERVEDASSFPLDYGIRRLDHAVGNVPELGPALTYVAGFTGFHQFAEFTADDVGTAESGLNSAVLASNDEMVLLPINEPVHGTKRKSQIQTYLEHNEGAGLQHLALMSEDIFRTLREMRKRSSIGGFDFMPSPPPTYYQNLKKRVGDVLSDDQIKECEELGILVDRDDQGTLLQIFTKPLGDRPTIFIEIIQRVGCMMKDEEGKAYQSGGCGGFGKGNFSELYKSIEEYEKTLEAKQLVG
modifications: GST carrier omitted. Limits not printed: ARM region taken as everything after the U-box (240-314) to the C-terminus
B3: AtHPPD-F64Y (protein)
chain: MGHQNAAVSENQNHDDGAASSPGFKLVGFSKFVRKNPKSDKFKVKRFHHIEFWCGDATNVARRYSWGLGMRFSAKSDLSTGNMVHASYLLTSGDLRFLFTAPYSPSLSAGEIKPTTTASIPSFDHGSCRSFFSSHGLGVRAVAIEVEDAESAFSISVANGAIPSSPPIVLNEAVTIAEVKLYGDVVLRYVSYKAEDTEKSEFLPGFERVEDASSFPLDYGIRRLDHAVGNVPELGPALTYVAGFTGFHQFAEFTADDVGTAESGLNSAVLASNDEMVLLPINEPVHGTKRKSQIQTYLEHNEGAGLQHLALMSEDIFRTLREMRKRSSIGGFDFMPSPPPTYYQNLKKRVGDVLSDDQIKECEELGILVDRDDQGTLLQIFTKPLGDRPTIFIEIIQRVGCMMKDEEGKAYQSGGCGGFGKGNFSELFKSIEEYEKTLEAKQLVG
modifications: GST carrier omitted. Limits not printed: ARM region taken as everything after the U-box (240-314) to the C-terminus
B4: AtHPPD-F419Y (protein)
chain: MGHQNAAVSENQNHDDGAASSPGFKLVGFSKFVRKNPKSDKFKVKRFHHIEFWCGDATNVARRFSWGLGMRFSAKSDLSTGNMVHASYLLTSGDLRFLFTAPYSPSLSAGEIKPTTTASIPSFDHGSCRSFFSSHGLGVRAVAIEVEDAESAFSISVANGAIPSSPPIVLNEAVTIAEVKLYGDVVLRYVSYKAEDTEKSEFLPGFERVEDASSFPLDYGIRRLDHAVGNVPELGPALTYVAGFTGFHQFAEFTADDVGTAESGLNSAVLASNDEMVLLPINEPVHGTKRKSQIQTYLEHNEGAGLQHLALMSEDIFRTLREMRKRSSIGGFDFMPSPPPTYYQNLKKRVGDVLSDDQIKECEELGILVDRDDQGTLLQIFTKPLGDRPTIFIEIIQRVGCMMKDEEGKAYQSGGCGGYGKGNFSELFKSIEEYEKTLEAKQLVG
modifications: GST carrier omitted. Limits not printed: ARM region taken as everything after the U-box (240-314) to the C-terminus
B5: AtHPPD-F202Y (protein)
chain: MGHQNAAVSENQNHDDGAASSPGFKLVGFSKFVRKNPKSDKFKVKRFHHIEFWCGDATNVARRFSWGLGMRFSAKSDLSTGNMVHASYLLTSGDLRFLFTAPYSPSLSAGEIKPTTTASIPSFDHGSCRSFFSSHGLGVRAVAIEVEDAESAFSISVANGAIPSSPPIVLNEAVTIAEVKLYGDVVLRYVSYKAEDTEKSEYLPGFERVEDASSFPLDYGIRRLDHAVGNVPELGPALTYVAGFTGFHQFAEFTADDVGTAESGLNSAVLASNDEMVLLPINEPVHGTKRKSQIQTYLEHNEGAGLQHLALMSEDIFRTLREMRKRSSIGGFDFMPSPPPTYYQNLKKRVGDVLSDDQIKECEELGILVDRDDQGTLLQIFTKPLGDRPTIFIEIIQRVGCMMKDEEGKAYQSGGCGGFGKGNFSELFKSIEEYEKTLEAKQLVG
modifications: GST carrier omitted. Limits not printed: ARM region taken as everything after the U-box (240-314) to the C-terminus
B6: AtHPPD-F215Y (protein)
chain: MGHQNAAVSENQNHDDGAASSPGFKLVGFSKFVRKNPKSDKFKVKRFHHIEFWCGDATNVARRFSWGLGMRFSAKSDLSTGNMVHASYLLTSGDLRFLFTAPYSPSLSAGEIKPTTTASIPSFDHGSCRSFFSSHGLGVRAVAIEVEDAESAFSISVANGAIPSSPPIVLNEAVTIAEVKLYGDVVLRYVSYKAEDTEKSEFLPGFERVEDASSYPLDYGIRRLDHAVGNVPELGPALTYVAGFTGFHQFAEFTADDVGTAESGLNSAVLASNDEMVLLPINEPVHGTKRKSQIQTYLEHNEGAGLQHLALMSEDIFRTLREMRKRSSIGGFDFMPSPPPTYYQNLKKRVGDVLSDDQIKECEELGILVDRDDQGTLLQIFTKPLGDRPTIFIEIIQRVGCMMKDEEGKAYQSGGCGGFGKGNFSELFKSIEEYEKTLEAKQLVG
modifications: GST carrier omitted. Limits not printed: ARM region taken as everything after the U-box (240-314) to the C-terminus
B7: AtHPPD-F47Y (protein)
chain: MGHQNAAVSENQNHDDGAASSPGFKLVGFSKFVRKNPKSDKFKVKRYHHIEFWCGDATNVARRFSWGLGMRFSAKSDLSTGNMVHASYLLTSGDLRFLFTAPYSPSLSAGEIKPTTTASIPSFDHGSCRSFFSSHGLGVRAVAIEVEDAESAFSISVANGAIPSSPPIVLNEAVTIAEVKLYGDVVLRYVSYKAEDTEKSEFLPGFERVEDASSFPLDYGIRRLDHAVGNVPELGPALTYVAGFTGFHQFAEFTADDVGTAESGLNSAVLASNDEMVLLPINEPVHGTKRKSQIQTYLEHNEGAGLQHLALMSEDIFRTLREMRKRSSIGGFDFMPSPPPTYYQNLKKRVGDVLSDDQIKECEELGILVDRDDQGTLLQIFTKPLGDRPTIFIEIIQRVGCMMKDEEGKAYQSGGCGGFGKGNFSELFKSIEEYEKTLEAKQLVG
modifications: GST carrier omitted. Limits not printed: ARM region taken as everything after the U-box (240-314) to the C-terminus
B8: AtHPPD-F131Y (protein)
chain: MGHQNAAVSENQNHDDGAASSPGFKLVGFSKFVRKNPKSDKFKVKRFHHIEFWCGDATNVARRFSWGLGMRFSAKSDLSTGNMVHASYLLTSGDLRFLFTAPYSPSLSAGEIKPTTTASIPSFDHGSCRSYFSSHGLGVRAVAIEVEDAESAFSISVANGAIPSSPPIVLNEAVTIAEVKLYGDVVLRYVSYKAEDTEKSEFLPGFERVEDASSFPLDYGIRRLDHAVGNVPELGPALTYVAGFTGFHQFAEFTADDVGTAESGLNSAVLASNDEMVLLPINEPVHGTKRKSQIQTYLEHNEGAGLQHLALMSEDIFRTLREMRKRSSIGGFDFMPSPPPTYYQNLKKRVGDVLSDDQIKECEELGILVDRDDQGTLLQIFTKPLGDRPTIFIEIIQRVGCMMKDEEGKAYQSGGCGGFGKGNFSELFKSIEEYEKTLEAKQLVG
modifications: GST carrier omitted. Limits not printed: ARM region taken as everything after the U-box (240-314) to the C-terminus
B9: AtHPPD-F132Y (protein)
chain: MGHQNAAVSENQNHDDGAASSPGFKLVGFSKFVRKNPKSDKFKVKRFHHIEFWCGDATNVARRFSWGLGMRFSAKSDLSTGNMVHASYLLTSGDLRFLFTAPYSPSLSAGEIKPTTTASIPSFDHGSCRSFYSSHGLGVRAVAIEVEDAESAFSISVANGAIPSSPPIVLNEAVTIAEVKLYGDVVLRYVSYKAEDTEKSEFLPGFERVEDASSFPLDYGIRRLDHAVGNVPELGPALTYVAGFTGFHQFAEFTADDVGTAESGLNSAVLASNDEMVLLPINEPVHGTKRKSQIQTYLEHNEGAGLQHLALMSEDIFRTLREMRKRSSIGGFDFMPSPPPTYYQNLKKRVGDVLSDDQIKECEELGILVDRDDQGTLLQIFTKPLGDRPTIFIEIIQRVGCMMKDEEGKAYQSGGCGGFGKGNFSELFKSIEEYEKTLEAKQLVG
modifications: GST carrier omitted. Limits not printed: ARM region taken as everything after the U-box (240-314) to the C-terminus
B10: AtHPPD-F52Y (antibody)
chain: MGHQNAAVSENQNHDDGAASSPGFKLVGFSKFVRKNPKSDKFKVKRFHHIEYWCGDATNVARRFSWGLGMRFSAKSDLSTGNMVHASYLLTSGDLRFLFTAPYSPSLSAGEIKPTTTASIPSFDHGSCRSFFSSHGLGVRAVAIEVEDAESAFSISVANGAIPSSPPIVLNEAVTIAEVKLYGDVVLRYVSYKAEDTEKSEFLPGFERVEDASSFPLDYGIRRLDHAVGNVPELGPALTYVAGFTGFHQFAEFTADDVGTAESGLNSAVLASNDEMVLLPINEPVHGTKRKSQIQTYLEHNEGAGLQHLALMSEDIFRTLREMRKRSSIGGFDFMPSPPPTYYQNLKKRVGDVLSDDQIKECEELGILVDRDDQGTLLQIFTKPLGDRPTIFIEIIQRVGCMMKDEEGKAYQSGGCGGFGKGNFSELFKSIEEYEKTLEAKQLVG
modifications: GST carrier omitted. Limits not printed: ARM region taken as everything after the U-box (240-314) to the C-terminus
B11: AtHPPD-F424Y (protein)
chain: MGHQNAAVSENQNHDDGAASSPGFKLVGFSKFVRKNPKSDKFKVKRFHHIEFWCGDATNVARRFSWGLGMRFSAKSDLSTGNMVHASYLLTSGDLRFLFTAPYSPSLSAGEIKPTTTASIPSFDHGSCRSFFSSHGLGVRAVAIEVEDAESAFSISVANGAIPSSPPIVLNEAVTIAEVKLYGDVVLRYVSYKAEDTEKSEFLPGFERVEDASSFPLDYGIRRLDHAVGNVPELGPALTYVAGFTGFHQFAEFTADDVGTAESGLNSAVLASNDEMVLLPINEPVHGTKRKSQIQTYLEHNEGAGLQHLALMSEDIFRTLREMRKRSSIGGFDFMPSPPPTYYQNLKKRVGDVLSDDQIKECEELGILVDRDDQGTLLQIFTKPLGDRPTIFIEIIQRVGCMMKDEEGKAYQSGGCGGFGKGNYSELFKSIEEYEKTLEAKQLVG
modifications: GST carrier omitted. Limits not printed: ARM region taken as everything after the U-box (240-314) to the C-terminus
B12: AtHPPD-F29Y (protein)
chain: MGHQNAAVSENQNHDDGAASSPGFKLVGYSKFVRKNPKSDKFKVKRFHHIEFWCGDATNVARRFSWGLGMRFSAKSDLSTGNMVHASYLLTSGDLRFLFTAPYSPSLSAGEIKPTTTASIPSFDHGSCRSFFSSHGLGVRAVAIEVEDAESAFSISVANGAIPSSPPIVLNEAVTIAEVKLYGDVVLRYVSYKAEDTEKSEFLPGFERVEDASSFPLDYGIRRLDHAVGNVPELGPALTYVAGFTGFHQFAEFTADDVGTAESGLNSAVLASNDEMVLLPINEPVHGTKRKSQIQTYLEHNEGAGLQHLALMSEDIFRTLREMRKRSSIGGFDFMPSPPPTYYQNLKKRVGDVLSDDQIKECEELGILVDRDDQGTLLQIFTKPLGDRPTIFIEIIQRVGCMMKDEEGKAYQSGGCGGFGKGNFSELFKSIEEYEKTLEAKQLVG
modifications: GST carrier omitted. Limits not printed: ARM region taken as everything after the U-box (240-314) to the C-terminus

molecular target: GST; assay: MST

Work on B1 yielded a Kd of over 1000 µM.

Molecular target: T1, GST-PUB11-ARM
Assay: MST

Compared with B2, B3 is 3.5-fold lower in Kd: 1.3 µM for the first, 0.37 µM for the second. The second binds more tightly here.

Going from B4 to B5, the Kd falls from 46.7 µM to 1.65 µM (28-fold). The second binds more tightly here.

Going from B6 to B7, the Kd falls from 1.59 µM to 0.23 µM (6.9-fold).

Going from B8 to B9, the Kd rises from 1.26 µM to 2.38 µM (1.9-fold). The first binds more tightly here.

B10 and B11 are within 1.5-fold of each other in Kd: 1.6 µM for the first, 1.75 µM for the second.

In the case of B12, the Kd is reported as 1.08 µM.
